Data on one sequence can be found in paper PMC7660256.

In the data set the target is T1, PdhR (Escherichia coli K-12 W3110) (UniProt P0ACL9).
T1 sequence: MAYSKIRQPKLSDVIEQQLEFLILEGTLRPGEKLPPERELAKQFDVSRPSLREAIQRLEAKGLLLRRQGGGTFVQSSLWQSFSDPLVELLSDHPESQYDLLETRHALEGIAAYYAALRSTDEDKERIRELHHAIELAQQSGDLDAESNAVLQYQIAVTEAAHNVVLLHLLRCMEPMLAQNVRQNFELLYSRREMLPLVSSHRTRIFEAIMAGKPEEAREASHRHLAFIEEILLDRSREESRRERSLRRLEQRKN
Kind of data set: EMSA. The following applies: Gel shift buffer (composition not given), 37 °C, 30 min; 0.2 pmol probe, 0-10 pmol PdhR; GelRed stain. gSELEX: 10 mM Tris-HCl pH 7.8 (4 °C), 3 mM Mg acetate …. Background: A gel shift assay detects complexes by their altered migration in electrophoresis.

On to “CTCTATATCACTCTCACAAATTCGCTCAAATAATAAACAATAAACTCTGTTTTTTGATCTCACCCGGTAAAGTCGCCTATCTTTTCAGCAACAAAACTTGATTAACATCAATTTTGGTATGACCAATGCACCATTCATGTTATTCTCAATAGCGAAGAACATTTTCATTGCTGTAACCTGTTGTTAATTAAGAGCTATGTTAATAACCATTAATTAACAATTGGTTAATAAATTTAAGGGGGTCACG (double strand) [ndh probe]”, for which the binding entry is “binds”.
